Measured values taken from publication PMC8960874 (Nature Communications, 2022).

Target: T1, WT ectodomain of the SARS-CoV-2 spike trimer (SARS-CoV-2, original …, stabilised)
T1 construct: also called S trimer; prefusion spike trimer ectodomain
Assay: cryo-EM structure
Conditions: both partners purified

B1: Clone 6 Fab (Fab, V domains shown)
VH: QVQLQQSAAELARPGASVKMSCKASGYTFTSYTMHWVKQRPGQGLEWIGYINPTSGYTEYNQNFKDKTTLTADKSSSTAYMQLNSLTSEDSAVYYCAREGHRVGPAYWGQGTLVTVSA
VL: not shown
notes: also called Fab6; Fab clone 6
stoichiometry N: 3 Fab molecules per S trimer

B2: Clone 2 Fab (Fab, V domains shown)
VH: EVQLQQSGPELVKPGASVKISCKASGYSFTGYSMNWMKQSPEKSLEWIGEINPSTGGTTDNQKFKAKATLTVDKSSSTAYMQLKSLTSEDSAVYYCARSRGDYWGQGTSVTVSS
VL: DIVLTQSPASLAVSLGQRATISCRASESVEYYGTSLMQWYQQKPGQPPKVLIYAASNVESGVPARFSGSGSGTDFSLNIHPVEEDDIAMYFCQQSRKVPWTFGGGTKLEIK
notes: also called Fab2; Fab clone 2
stoichiometry N: 3 Fab molecules per S trimer
